Results as given in patent US20250295776A1, “CLEAVAGE RESISTANT CD16 CONSTRUCTS AND USES THEREOF” (Celularity Inc., priority 2022, published 2025).
Values belong to the substance of their own block, whether it stands above or below them.

Tests used:
Assay in all cases: cell-based or functional assay
[1] = biological target: high affinity (158 Val) and proteinase cleavage resistant (197Pro) CD16 variant (CD16VP) (human) (UniProt P08637)
[2] = biological target: endogenous CD16 on non-transduced (NT) placental NK cells (human) (UniProt P08637)
[3] = biological target: HER2 (human epidermal growth factor 2) on HER2 overexpressing tumor cell lines (human) (UniProt P04626)
[4] = biological target: CD16VS (construct #5: 176 V; SCRAMBLED original sequence), without Myc tag (human) (UniProt P08637)
[5] = biological target: Construct #10 (176 V (also referred to as 158 V); 197 Serine (S)), without Myc tag (human) (UniProt P08637)
[6] = biological target: Construct #1 (176 V; 197 Glycine (G)), without Myc tag (human) (UniProt P08637)

Avelumab (anti-PD-L1 antibody), sequence (HC): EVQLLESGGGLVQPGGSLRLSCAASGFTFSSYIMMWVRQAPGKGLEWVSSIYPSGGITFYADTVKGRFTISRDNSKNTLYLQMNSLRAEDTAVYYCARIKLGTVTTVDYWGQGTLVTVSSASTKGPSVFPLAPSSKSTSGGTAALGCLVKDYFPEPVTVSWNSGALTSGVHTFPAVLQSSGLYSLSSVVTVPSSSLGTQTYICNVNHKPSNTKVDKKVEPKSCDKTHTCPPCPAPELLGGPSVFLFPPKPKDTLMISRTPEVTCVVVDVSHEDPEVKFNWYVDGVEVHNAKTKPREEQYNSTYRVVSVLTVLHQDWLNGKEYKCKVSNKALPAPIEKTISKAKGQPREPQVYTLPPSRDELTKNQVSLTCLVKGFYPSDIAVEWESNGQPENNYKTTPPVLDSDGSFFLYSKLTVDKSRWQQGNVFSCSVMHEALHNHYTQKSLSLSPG
Avelumab (anti-PD-L1 antibody), sequence (LC): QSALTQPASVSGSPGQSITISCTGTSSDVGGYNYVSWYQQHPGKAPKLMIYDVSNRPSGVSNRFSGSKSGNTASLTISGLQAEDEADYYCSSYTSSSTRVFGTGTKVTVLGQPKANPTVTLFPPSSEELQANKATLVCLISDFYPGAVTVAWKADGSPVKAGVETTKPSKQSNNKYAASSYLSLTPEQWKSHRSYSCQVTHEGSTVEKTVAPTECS

Substance: Daratumumab (anti-CD38) (antibody)
- cytotoxicity (ADCC) of PNK-CD16VP cells against Daratumumab opsonized Daudi cells, E:T 10:1 (n=5) [1]: 47%
- cytotoxicity (ADCC) of PNK-CD16VP cells against Daratumumab opsonized HS-Sultan cells, E:T 10:1 (n=3) [1]: 30%
- cytotoxicity (ADCC) of PNK-CD16VP cells against Daratumumab opsonized Sudh16 cells, E:T 10:1 (n=3) [1]: 30%
- cytotoxicity (ADCC) of NT cells against Daratumumab opsonized Daudi cells, E:T 10:1 (n=5) [2]: 25%
- cytotoxicity (ADCC) of NT cells against Daratumumab opsonized HS-Sultan cells, E:T 10:1 (n=3) [2]: 21%
- cytotoxicity (ADCC) of NT cells against Daratumumab opsonized Sudh16 cells, E:T 10:1 (n=3) [2]: 16%

- lysis of NCI-N87 cells by CYNK-101 cells (n=7 donors) in the presence of IgG control, 24 h, E:T 0.6:1, xCELLigence [3]: 7.5%
- lysis of OE19 cells by CYNK-101 cells (n=7 donors) in the presence of IgG control, 24 h, E:T 0.6:1, xCELLigence [3]: 14.7%
Substance: Ultra-LEAF purified human IgG1 isotype control recombinant antibody

- CD16 shedding after PMA/ionomycin activation, flow cytometry, PNK-CD16VP cells [1]: < 11%
- CD16 shedding percentage post 2 h PMAi stimulation, transduced CYNK cells (n=6 donors) [1]: 4.3%
- CD16 shedding percentage post 2 h PMAi stimulation, transduced CYNK cells (n=6 donors) [4]: 0.6%
- CD16 shedding after 2 h PMAi, control sample [2]: 60%
- CD16 shedding percentage post 2 h PMAi stimulation, NT CYNK cells [2]: 74.7%
- CD16 shedding percentage post 2 h PMAi stimulation, transduced CYNK cells (n=6 donors) [5]: 1.8%
- CD16 shedding percentage post 2 h PMAi stimulation, transduced CYNK cells (n=6 donors) [6]: 9.4%
Substance: metalloprotease ADAM17 (from UniProt P78536 215-824) (enzyme)

- cytolysis of 5637, T-24, RT-112 and NCI-H1975 tumor cell lines by PT-CD16VS cells with Avelumab, 24 hours, 5:1 E:T ratio [4]: 100%
- cytolysis of MDA-MB-231 by PT-CD16VS cells with Avelumab, 12 hours, 5:1 E:T ratio [4]: 70%
Substance: Avelumab (anti-PD-L1 antibody)
